The DeepSol protein solubility set

Assay: soluble on expression in E. coli; label from the status in PepcDB or PDB records

| Sequence | soluble on expression in E. coli |
| --- | --- |
| MNKVLINDTTLRDGEQAAGVVFTLEEKVAIAKFLDTIGVPELEVGIPAMGEEEMRAICAISNLGLKANLLAWNRAVISDIKASVACGMERVHIAIPVSGIQIAAKFHGQWRVSLQRLKDCISFAVDQGLWVAVGGEDSSRADENFLLDVALYAQEWGASRFRFCDTVGVLDPFTTYGKVKLLVSALTIPVEVHTHNDFGMATANALAGIKAGASSVNTTVIGLGERAGNAALEEVVMAIKRIYGVDMGIDTPRLLELSQLVAAASGANVPPWKAIVGENTFAHESGIHAHGVLQNPDTYEPFAPEEVGWERRLVVGKHSGRHSVSNLLEQHGIFLNPEETQSVLDAVRQQSIKKKRSLTTEELLNLVKEQR | not soluble |
| MGSDKIHHHHHHMTPDSSPSSVDDPLFESGHRIFANKDLLKIGHVPEADRIVGRDEEISKLAKRLNGAVHGYSPENVMIYGKTGTGKSLVSKHVCQRAQNAAQDGVEIGTAYIDCAEDNTETQAISSLAAKLNDESSTGISVPHTGLSTSKYYKLLWKTLDAQFDSVIIILDEIDLMNDDSVLMKLSRAEEAGKIDCSVGVIAISNKIQYVDNVNERVKSSFQHKELFFKPYDANQLREIMFNREDAFQDGVLSEDVIPLSAAFAAQEHGDARKAIDILRHAGEVAYEAGAELVTEEHVRQAQQHAEKDRFRELVNGAPTQAKAALLALTELSVNSNDDAFLTSRVYDQYEHICNHLDMDILSVRRFRDILKEQAFLGVVEIEKINKGSAGGIHLQNRLIEDSQVVRETILEDSRMQDWTRE | not soluble |
| MGSDKIHHHHHHMRNITVPSNYFHTRERLGALGGIVQHHTALYRSVAVYEPTVVIVRRGCKKLRWAGRELRIAAGEAVGLAGGQTLDVINIPDSDGLYQAQWIAFEQETVERFAAQYGTAQAVCDAVKLPHPGRMGAAFDYAAAVLADEEVPHNAAEAALCGVLAWLQHDGIGFAVYGGVNLMRQIRKLITADMAADWSSAMLAQRLNCSEAALRRRLARQDTNFRTLLTDVRMMRALTLLQVTQWSVAQIAGAVGYDCPSRFSARFKELFGCVPSVVRSEAEPAAYRRTGQVSVGVRP | not soluble |
| MSLVTSVSKLMFLGGSNKLICHNKETFVKILENPNQPLITVSNHRSNIDDPLMWCILKFREFWRYKDRNRYTLAAHNICFTKQFHTTMFSLGRCVPCVRGEGVYQKGMDFCVDMLNDNKWVHIFPEGKVCTLESEPLRFKWGIGRLVMDAKTDPVILPVWCKEMEKVWPTQPPYYPKFGNTVTVHIGEPFFLSDLKKTVLSKSLTTEQMRKIITDEVQTRMYQLGEKVGDLPKGSSLEILRKNPPIEY | not soluble |
| MKVETCVYSGYKIHPGHGKRLVRTDGKVQIFLSGKALKGAKLRRNPRDIRWTVLYRIKNKKGTHGQEQVTRKKTKKSVQVVNRAVAGLSLDAILAKRNQTEDFRRQQREQAAKIAKDANKAVRAAKAAANKEKKASQPKTQQKTAKNVKTAAPRVGGKR | not soluble |
| MGHHHHHHSHMLSPNPLNSRAVEDISSSRTNPYSYAMSTEEARFLTYHMWPLTFLSPSELARAGFYYIGPGDRVACFACGGKLSNWEPKDDAMSEHRRHFPNCPFLENSLETLRFSISNLSMQTHAARMRTFMYW | not soluble |
| MGSDKIHHHHHHMLGKGVVDYTREGSILSAEQRRFYEKNGYLLIRNCVPQYELNRFRQRFQDICEKKVKAPENMTVMKDISIAKSEFKDGEKAITKIQDFADDPVLFEYCKYPGVVDVVKDLIGNPKSNLMAMHTMLINKPPDNGKLTSRHPMHQDLQYFPFRPADFICCAWTAMEKITRANGCLVVVPGTHKGVLLPHEYPKWEGGVNKAYHGIQDYDTSTPRIHVEMEPGDTVFFHPILIHGSGANRTEGFRKAISCHYANDDLCRYVNVEGTTQETLAEEIIEIAKKRLTRYGLDPNTVTLDFADIWRVRAREVNGRRSNL | not soluble |
| MDVNQFTELITKLQSADNDIRKQAEEVYEKIEGPTKVAALFEAYTHHTNNSDARSTVLVFLRRVLARDWDAIWETLNEENKQRILAKVLEMIVHETELSIKKKIADLISEIASNLIDDSGDMTWGGVLELMDHCLKSEDLTGNYIALLILRGCPIIFGNRLAHFLPTLKVVLEKCMATPDLQIKATAVRAVIAFAVDNDEEKDVVRLMTSLVPNVLQVCNETSDEDDSDGPLGEFAELASSLPKCLNTHMSQVLQVTLAIAGNKEKNEMVRQNAIEVICSYMESAPKGLKKYAPGALGPILETLLSCMTEMDDDVLNEWLNEIEEEEDYEDIPIIAESAIDRVACCINGKVMLPVFLPLVEKLLTSEDWKMKHAALRAFSAVGEGCQRSMEPHIEQIMAHITNYVNDAHPRVQYAACNAIGQMSSDFAPTLQKKCHAAVIPALLESLDRTDVPRVCAHAASALVNFAEECPKSIIGQYLPFILQKLENVLSAVFNRLGDKRYQVVVENIVTAIASVAEAAEELFKEHHARLIPNLVHILQNVGELKELRGKTIECISLIGYAVGKEQFHATAIEILNLLGDGMKDLAIDDPQYSYMISSWTRFCSILGADFAPFLPVVMDPVLRAARYRPDFNIFNNEDVHENEEGVEYHGIGGEKTVGIRTSGLEEKATACDMLVAFAKEMKEAFMPYVVDVYELAIKNLDFGLHDGVRTASAEIMPCLLTCVEKQGLADKRRLWCEFLKALTTSMEEEDDVEILASFMTTIGSCIEVMKTEGIAEEEVQLIISVLLKQLENYGKRMSDRPVEDEDDDDAEAKEELDYFMELEASCLGAISDLTHSLMKEFKGTIFEGMINVFNCAIQLIEGSKQYFERQWGMCLLDDAIEFGVGHMPTRFPKLIPIMYKLLGDEYPEVRQAASYGFGVMAINYHQISDYRNEILSCLEPLAAMIQREDARATEESTVATENAISAFAKIIGNVPLPAEAYGKVVEMFLSWLPTYSDTEESPYIYTCLAELFDKQDAALFGPENQNLPRIFLVCLLSIANDAFNDDDSGNQTKQRIVTILKQIYASFPQFAQQDGIDEHLTSVLQQTLNGQ | not soluble |
| MSYQPTSLTVASYNLRNANGSDSARGDGWGQRYPVIAQMVQYHDFDIFGTQECFLHQLKDMKEALPGYDYIGVGRDDGKDKGEHSAIFYRTDKFDIVEKGDFWLSETPDVPSKGWDAVLPRICSWGHFKCKDTGFEFLFFNLHMDHIGKKARVESAFLVQEKMKELGRGKNLPAILTGDFNVDQTHQSYDAFVSKGVLCDSYEKCDYRYALNGTFNNFDPNSFTESRIDHIFVSPSFHVKRYGVLTDTYRSVRENSKKEDVRDCPEEITIKAYEARTPSDHFPVKVELVFDLEHHHHHH | soluble |
| MRGFLFSMAQHFSLSAEARHLSIQVDELSDVEILSLLKTARWGNADNINDIECPHCHVRHEAYFIKTRQQWQCKHCCYRFSITAGTIFHLAKLSLRKILKALRYFALKSKGLSAIELSHEINVQYKTAWGLRHKFREALDKTKDLTPLKDEVHIDGAYTNYYIRPKNFRHKRIDRRKKRYQREDKSCVLVFRQRAANQAQMKGADRSIVALIKEENTQDVLDLTQRLVKQGSTIHTDENPAYDSLQFLYDLWRVNHSQEYCSIEGITNNLAESFFARFRRMIIGVHHKMANRYMLYYANEIAWREDNRLKTDREKLNDVLQRCIKTKPSRHFTGYWQGSKKSPETFGLESINASNDSHYLIAALEHHHHHH | not soluble |
| MAHHHHHHMCSDVKFSERLTTSPAVVTGFLSPTLRKVMKATMKNSDFNDNTNNSNNMNMFQNLPATLELNPSHTIVTSIYHLKNTNQEVAKLLVQQLYDNACIAAGILEDPRSLLSKLNELLLLTARYAYHYEKKDIQENTKDQPIDVKDNTMAIDNIVNTKENNTNDDSVMKEAQSSNL | soluble |
| MGSDKIHHHHHHAKSYSKAVTKIAGTKNYPIYHKVTKNGPSGKFTSTSYFKYGQIQSKQYVSTKKGNFWNIIVDGRPVGWVSENCFARNTISVANDVSLVKNSDYSFNTRDAINYATDSHGTAIDPDRVQVSQASVSTKATTVNYSYGKAKASVNIDVRSGNDEMGEANVTPKSGFKTTTTWNGGSKGSSRNWNAAHHYTSETTSNTFKSNGLTLRTRLFQPRFVSLGYGQSADKMGQVGVIPEGMTVNGGIFATSMFTSSSDQHGHIVSYNLNTIKSKYAVQNLTTMNWSTFKSYANNIKVSPYIKLGHGQSLGSSSDYIYVMANDNNYNNGPRSEEIIQIRKSDMKINKIWTFRIAENRYIHNATFVGDNTMYALFHNGGHNHYEYWKLTRNGDSWKATEVGATAGSFVSNSPVQGFAYGNGSFFIGFNDNIFKVSENGAAQKHYRFNTGREIEGLSANGSDLYVQFAQRAELTQGRF | not soluble |
| MVNIMDEIIVVTTPTIPGYKIIEVKGIARGGIVMATHLGRDILALLRNIKGGEVKEYTQMMAEAREEALRRMIEHAKKLGANAVVNFRFATSNVGGGMAEVYAYGTAVVVEREKMASMTGGQQMGRIRIRLEHHHHHH | soluble |
| TETRLLQARVSDLQRLSSLGRMVASLAHQVRTPLSSAMLYASNLGAPNLPPATRERFQSKLMDRLHDLEKQVNDMLLFAKGGDNKVIKPFTIAQLVAEYQPMVETALKNNNIDYFLEVEEEQTE | not soluble |
| MGSDKIHHHHHHAQEERNQGIIWSYLHGWEYGIKAGFSIGGTSPLPLPEEIRKIDSYAPGGLAISIEGNATKWFDTKWGMTVGVRLENKNMTTEATVKNYGMKIINTNGGELQGLWTGGVKTKVKNSYLTIPVVANYKVSKRWKVSAGPYVSYLIERNFSGHVYEGHLRTPDQTGSRVDFTGESIATYDFSDNLRKFQWGLQLGGEWRAFKHLNVYADLTWGLNDIFKKDFDTISFAMYPIYLNIGFGYAF | not soluble |
| MNFRTDSIDDLDKFKKEFKPVMHLKGDAFNQQLQSLINKYPQIQKNMKSEFIAYYDKEKNRETVKNYAWNLQKSINDIMQSYPSTKFVQFYKDDVSPSMVDGNGRLKSDTNVISIEGGKYDENKLEHHHHHH | soluble |
| MGSDKIHHHHHHMNKQEITSKIKEITETGAVCGVDVYVCLKGEEQGFYIEKMISMNSLKDRIRSIALEIINTQYLQDEVVYCDILDVIDNKKAVYVLEQSDEYKPFALLNDDSMDEVFNFDEKDIGNVLGFLFKINLNSKKLFIYQQAYVGSRLQAKNNLRIIQKDNVFEIVDKEMLKIDKRGELLILDNTILVRNVKVLQDFFGFQVFVRNQAQSVISKLEELDIIGNIATLKEYQTGEKLTISKKLMKVKNSPVLAMDKDELINKIPLVPRYKNIIHIENGKIRTNTKKDVDNLMKLLNDDYVKSELTDMEYDSTSKTLLNSESQDE | not soluble |
| MRMKALLIDYGSGNLRSAAKALEAAGFSVAVAQDPKAHEEADLLVLPGQGHFGQVMRAFQESGFVERVRRHLERGLPFLGICVGMQVLYEGSEEAPGVRGLGLVPGEVRRFRAGRVPQMGWNALEFGGAFAPLTGRHFYFANSYYGPLTPYSLGKGEYEGTPFTALLAKENLLAPQFHPEKSGKAGLAFLALARRYFEVL | soluble |
| MTTLLIVPGFGGSGPLHWQSWIAQKYTSSLWVNDLPLLEPKIHIWADAISRAMDNIEGKILILAHSFGCLASSLAIARHPQRVVAAILVAPASPESFSENGHILPEHDDTPTIRNLLPKQTLGICGLVIASENDPWMPFNQAASLAKSFGLPTINLGLSGHINVDSGHGQWPLIDVLVGNFLFQNENVPPIPSIKTAQDKTTPHLFPNGILEHHHHHH | not soluble |
| MARHVFLPPLSVHRHRPHPLGVCGFESFQTLHPRKRAARPDSRPLYELCRHTCLQDFPKIRHPLCRHGTQQHHYARFGAPAPMAAYEKCGGTRRRTSRRQPPFRTRPATQIRLRMAVPPPTYWAEYSTDRLNKEKKNNKPHFVFCTVSHLRRLKGHDVLLTAFARALAQCPQLRLNIGGSGQEEQRLKQQAADLGITHAVTFLGALQPEAVLDLMRNSDAFVLASRTETFGVVYIEALSQGLPVIATRCGGAESIVSDGNGYLVPVDDDDALADALIKMCEHHSDFEPARLRENCLNEFGENAVIGRLIGIFRQAIAEYGKKIPVKYSGLTKIRTRRRSRRQYK | not soluble |
